Laboratory results taken from PMC5627308, “Biochemical Function, Molecular Structure and Evolution of an Atypical Thioredoxin Reductase from Desulfovibrio vulgaris” (Frontiers in Microbiology, 2017).
Values belong to the compound of their own block, whether it stands above or below them.

Assays:
DvTR1 = molecular target: T1, DvTR1 (Nitratidesulfovibrio vulgaris, UniProt Q72B02); assay: reduction of bound flavin, absorbance spectra, anaerobic; format: biochemical; conditions: 100 uM NAD(P)H, 50 mM Tris-HCl pH 7.5, 150 mM NaCl, 25 C
T1 construct: gene trxB-2; recombinant from E. coli, purified; FAD-containing

DvTR3 = molecular target: T2, DvTR3 (Nitratidesulfovibrio vulgaris, UniProt Q72F38); assay: as above; format: biochemical; conditions: 100 uM NAD(P)H, 50 mM Tris-HCl pH 7.5, 150 mM NaCl, 25 C
T2 construct: gene trxB-1; recombinant from E. coli, purified; FAD-containing

[1] = molecular target: DvTrx1C33S (Desulfovibrio vulgaris Hildenborough); assay: cross-linking; mixed-disulfide trapping with single-cysteine variants: DTT-reduced DvTRi variant reacted with equimolar DvTrx1 variant activated as TNB mixed disulfide, 50 mM Na/K phosphate pH 8.8, 2 h at 37°C; non-reducing SDS-PAGE, western blot with antiserum against EcTrxA
[2] = molecular target: DvTrx1C30S (Desulfovibrio vulgaris Hildenborough); assay: as above
[3] = molecular target: DvTRi, isolated thioredoxin reductase from Desulfovibrio vulgaris Hildenborough (Desulfovibrio vulgaris Hildenborough); assay: crystal structure; oxidized DvTRi, 2.0 Å; crystals from 12% PEG 3350, 100 mM BisTris pH 6.0 (crystals 1) or 25% PEG 4000, 50 mM ammonium acetate, 100 mM sodium citrate pH 5.6 (crystals 2)

T1 sequence (Q72B02 entry or part of it): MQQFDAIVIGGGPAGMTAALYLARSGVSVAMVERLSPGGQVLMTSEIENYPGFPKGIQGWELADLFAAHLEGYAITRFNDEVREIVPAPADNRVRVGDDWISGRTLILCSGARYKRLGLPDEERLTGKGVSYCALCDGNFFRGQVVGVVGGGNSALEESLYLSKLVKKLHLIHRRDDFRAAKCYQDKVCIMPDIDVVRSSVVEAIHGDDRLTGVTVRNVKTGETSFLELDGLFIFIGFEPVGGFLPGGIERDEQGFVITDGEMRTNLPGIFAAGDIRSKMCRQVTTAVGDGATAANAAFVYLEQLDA
T2 sequence (Q72F38 entry or part of it): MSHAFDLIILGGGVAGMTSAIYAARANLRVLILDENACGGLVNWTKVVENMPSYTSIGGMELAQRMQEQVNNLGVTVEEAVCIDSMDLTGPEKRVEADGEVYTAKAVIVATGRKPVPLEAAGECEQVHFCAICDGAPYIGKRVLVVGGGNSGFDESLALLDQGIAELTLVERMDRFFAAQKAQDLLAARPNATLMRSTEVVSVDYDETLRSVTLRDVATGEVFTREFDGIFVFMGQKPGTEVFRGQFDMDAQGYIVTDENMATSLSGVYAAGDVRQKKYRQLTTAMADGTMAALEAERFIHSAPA

stoichiometry N [1]: 2
Compound: DvTrx1C33S (natural protein)

stoichiometry N [3]: 2
Compound: DvTRi, isolated thioredoxin reductase from Desulfovibrio vulgaris Hildenborough (enzyme)

Continued, compound first:

Compound: NC(=O)C1=CN([C@@H]2O[C@H](COP(=O)(O)OP(=O)(O)OC[C@H]3O[C@@H](n4cnc5c(N)ncnc54)[C@H](OP(=O)(O)O)[C@@H]3O)[C@@H](O)[C@H]2O)C=CC1 [NADPH]
reduction of bound flavin, absorbance spectra, anaerobic (DvTR1): DvTR1 and DvTR3 were efficiently reduced by their specific reductants

Compound: NC(=O)C1=CN([C@@H]2O[C@H](COP(=O)(O)OP(=O)(O)OC[C@H]3O[C@@H](n4cnc5c(N)ncnc54)[C@H](O)[C@@H]3O)[C@@H](O)[C@H]2O)C=CC1 [NADH]
reduction of bound flavin, absorbance spectra, anaerobic (DvTR3): DvTR1 and DvTR3 were efficiently reduced by their specific reductants

Compound: DvTrx1C30S (natural protein)
stoichiometry N [2]: 2
